Legend:
Test in all cases: IP/MS, LZTR1 R810W-FLAG, U87
TUBGCP2 = TUBGCP2 (human, UniProt Q9BSJ2 1-902, limits assumed)
Summary of the method: (§1)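 Gel slices were reduced with 5 mM DTT, alkylated with 11 mM IAA and digested overnight at 37° C. with trypsin. Peptides were analysed on an Orbitrap Fusion Tribrid by LC-MS/MS.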

VPS18 = biological target: T1, VPS18 (human, UniProt Q9P253 2-973)
T1 sequence (looked up): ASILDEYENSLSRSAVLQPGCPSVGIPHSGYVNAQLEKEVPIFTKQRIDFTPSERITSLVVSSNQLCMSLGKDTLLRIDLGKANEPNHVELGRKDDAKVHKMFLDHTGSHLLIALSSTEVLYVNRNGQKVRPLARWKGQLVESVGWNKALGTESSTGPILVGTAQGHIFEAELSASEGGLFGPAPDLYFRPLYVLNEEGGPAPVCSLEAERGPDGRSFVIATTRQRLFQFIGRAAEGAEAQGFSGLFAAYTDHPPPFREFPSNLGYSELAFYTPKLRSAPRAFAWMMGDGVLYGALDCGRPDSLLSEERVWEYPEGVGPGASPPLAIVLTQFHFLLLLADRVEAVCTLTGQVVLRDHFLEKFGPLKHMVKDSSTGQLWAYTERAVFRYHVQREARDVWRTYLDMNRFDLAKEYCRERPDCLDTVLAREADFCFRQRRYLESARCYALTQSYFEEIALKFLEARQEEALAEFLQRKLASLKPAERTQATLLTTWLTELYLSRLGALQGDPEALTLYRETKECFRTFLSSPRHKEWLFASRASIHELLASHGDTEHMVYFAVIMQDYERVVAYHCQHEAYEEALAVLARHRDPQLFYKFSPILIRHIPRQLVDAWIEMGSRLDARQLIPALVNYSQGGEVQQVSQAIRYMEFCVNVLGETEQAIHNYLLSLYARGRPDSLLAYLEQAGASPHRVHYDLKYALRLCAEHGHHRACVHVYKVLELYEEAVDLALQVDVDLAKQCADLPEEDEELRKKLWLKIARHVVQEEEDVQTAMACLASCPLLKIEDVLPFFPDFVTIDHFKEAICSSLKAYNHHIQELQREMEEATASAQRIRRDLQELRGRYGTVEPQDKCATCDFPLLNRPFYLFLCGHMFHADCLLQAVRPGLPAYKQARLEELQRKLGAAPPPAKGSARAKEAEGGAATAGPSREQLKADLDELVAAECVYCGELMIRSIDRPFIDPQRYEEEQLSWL
Summary of the method: as §1

ELP1 = biological target: T2, ELP1 (human, UniProt O95163 1-1332)
T2 sequence (looked up): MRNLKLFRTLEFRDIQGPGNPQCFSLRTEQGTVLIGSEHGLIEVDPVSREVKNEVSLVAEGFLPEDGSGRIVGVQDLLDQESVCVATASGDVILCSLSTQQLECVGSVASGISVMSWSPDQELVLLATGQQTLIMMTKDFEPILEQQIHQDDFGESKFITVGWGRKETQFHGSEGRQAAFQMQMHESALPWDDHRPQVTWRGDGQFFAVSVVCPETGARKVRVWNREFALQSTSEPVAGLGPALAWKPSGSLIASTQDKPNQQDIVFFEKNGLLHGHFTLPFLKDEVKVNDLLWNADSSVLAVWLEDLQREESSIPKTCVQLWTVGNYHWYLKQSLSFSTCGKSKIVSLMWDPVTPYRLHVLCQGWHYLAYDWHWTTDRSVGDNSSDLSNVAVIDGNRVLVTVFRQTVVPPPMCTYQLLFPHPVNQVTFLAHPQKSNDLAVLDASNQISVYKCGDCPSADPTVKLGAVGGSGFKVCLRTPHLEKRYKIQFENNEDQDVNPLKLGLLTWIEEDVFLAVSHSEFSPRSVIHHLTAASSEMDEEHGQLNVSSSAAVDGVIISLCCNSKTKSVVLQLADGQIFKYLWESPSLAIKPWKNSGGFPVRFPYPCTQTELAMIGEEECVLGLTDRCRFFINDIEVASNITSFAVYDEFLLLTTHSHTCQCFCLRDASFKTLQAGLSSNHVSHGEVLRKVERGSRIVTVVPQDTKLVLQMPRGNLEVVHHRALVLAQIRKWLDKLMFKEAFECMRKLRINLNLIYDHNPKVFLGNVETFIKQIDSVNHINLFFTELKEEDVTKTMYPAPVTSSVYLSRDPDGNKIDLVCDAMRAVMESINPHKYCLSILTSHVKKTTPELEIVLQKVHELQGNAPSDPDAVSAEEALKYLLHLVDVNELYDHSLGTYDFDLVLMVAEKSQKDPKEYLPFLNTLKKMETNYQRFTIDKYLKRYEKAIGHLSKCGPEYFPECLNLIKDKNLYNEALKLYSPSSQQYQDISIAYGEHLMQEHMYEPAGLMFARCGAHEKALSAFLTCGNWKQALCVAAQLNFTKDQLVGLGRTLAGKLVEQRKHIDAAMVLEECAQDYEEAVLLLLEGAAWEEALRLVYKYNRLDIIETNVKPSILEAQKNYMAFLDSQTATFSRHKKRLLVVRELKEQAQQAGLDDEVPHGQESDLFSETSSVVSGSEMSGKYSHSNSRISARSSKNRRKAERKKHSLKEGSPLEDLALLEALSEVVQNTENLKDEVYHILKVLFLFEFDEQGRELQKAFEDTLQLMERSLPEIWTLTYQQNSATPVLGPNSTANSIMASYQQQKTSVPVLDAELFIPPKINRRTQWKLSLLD
Summary of the method: as §1

Measured: binding result

TUBGCP2, sequence (Q9BSJ2 whole entry, the tested form may be a part): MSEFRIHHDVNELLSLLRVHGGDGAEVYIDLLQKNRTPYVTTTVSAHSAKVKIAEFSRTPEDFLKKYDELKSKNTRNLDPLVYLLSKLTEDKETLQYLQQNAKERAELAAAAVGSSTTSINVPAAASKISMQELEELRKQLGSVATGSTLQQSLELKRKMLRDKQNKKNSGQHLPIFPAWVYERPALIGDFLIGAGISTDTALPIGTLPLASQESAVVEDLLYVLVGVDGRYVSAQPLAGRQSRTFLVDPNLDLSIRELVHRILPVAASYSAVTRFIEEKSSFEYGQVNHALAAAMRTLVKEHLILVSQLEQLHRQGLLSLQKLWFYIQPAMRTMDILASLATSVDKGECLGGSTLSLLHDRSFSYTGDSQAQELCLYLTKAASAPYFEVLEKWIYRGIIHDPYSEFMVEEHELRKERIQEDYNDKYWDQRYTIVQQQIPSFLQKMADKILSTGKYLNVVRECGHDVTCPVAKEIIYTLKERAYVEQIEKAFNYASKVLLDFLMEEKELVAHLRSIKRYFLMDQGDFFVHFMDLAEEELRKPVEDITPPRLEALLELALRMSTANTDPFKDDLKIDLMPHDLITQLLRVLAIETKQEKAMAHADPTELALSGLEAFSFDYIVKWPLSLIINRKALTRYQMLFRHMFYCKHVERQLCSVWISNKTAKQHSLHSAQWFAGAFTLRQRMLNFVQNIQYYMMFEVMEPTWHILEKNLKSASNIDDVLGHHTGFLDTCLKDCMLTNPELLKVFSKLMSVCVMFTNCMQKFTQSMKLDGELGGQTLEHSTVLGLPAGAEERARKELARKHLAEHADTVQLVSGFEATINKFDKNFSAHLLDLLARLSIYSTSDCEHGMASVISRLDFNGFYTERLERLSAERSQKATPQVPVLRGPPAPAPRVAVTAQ

B1: LZTR1 R810W-FLAG (other, human, UniProt Q8N653 1-840, looked up)
chain: MAGPGSTGGQIGAAALAGGARSKVAPSVDFDHSCSDSVEYLTLNFGPFETVHRWRRLPPCDEFVGARRSKHTVVAYKDAIYVFGGDNGKTMLNDLLRFDVKDCSWCRAFTTGTPPAPRYHHSAVVYGSSMFVFGGYTGDIYSNSNLKNKNDLFEYKFATGQWTEWKIEGRLPVARSAHGATVYSDKLWIFAGYDGNARLNDMWTIGLQDRELTCWEEVAQSGEIPPSCCNFPVAVCRDKMFVFSGQSGAKITNNLFQFEFKDKTWTRIPTEHLLRGSPPPPQRRYGHTMVAFDRHLYVFGGAADNTLPNELHCYDVDFQTWEVVQPSSDSEVGGAEVPERACASEEVPTLTYEERVGFKKSRDVFGLDFGTTSAKQPTQPASELPSGRLFHAAAVISDAMYIFGGTVDNNIRSGEMYRFQFSCYPKCTLHEDYGRLWESRQFCDVEFVLGEKEECVQGHVAIVTARSRWLRRKITQARERLAQKLEQEAAPVPREAPGVAAGGARPPLLHVAIREAEARPFEVLMQFLYTDKIKYPRKGHVEDVLLIMDVYKLALSFQLCRLEQLCRQYIEASVDLQNVLVVCESAARLQLSQLKEHCLNFVVKESHFNQVIMMKEFERLSSPLIVEIVRRKQQPPPRTPLDQPVDIGTSLIQDMKAYLEGAGAEFCDITLLLDGHPRPAHKAILAARSSYFEAMFRSFMPEDGQVNISIGEMVPSRQAFESMLRYIYYGEVNMPPEDSLYLFAAPYYYGFYNNRLQAYCKQNLEMNVTVQNVLQILEAADKTQALDMKRHCLHIIVHQFTKVSKLPTLWSLSQQLLLDIIDSLASHISDKQCAELGADI
notes: Stably expressed in U87 cells by lentivirus; also called LZTR1-FLAG-R810W; LZTR1 RW; not shown: FLAG tag
binds: TUBGCP2 | VPS18 | ELP1

— patent US20250262210A1 (TRUSTEES OF COLUMBIA UNIVERSITY IN THE CITY OF NEW YORK, published 2025)
